Results on 1 molecule are retold here after paper PMC3205929 (The Journal of neuroscience : the official journal of the …, 2011).

In the experiment the target is DAT 587–590(4A) mutant expressed in PC12 cells (human, UniProt Q01959 1-620, 587–590(4A)). The experiment is described as follows: co-IP.

B1: Rin, endogenous in PC12 cells (natural protein, rat (endogenous in PC12), UniProt Q5BJQ5 1-217, looked up)
chain: MEAENEAHCCPGSSSGGSREYKVVMLGAGGVGKSAVTMQFISHQFPDYHDPTIEDAYKTQVRIDNEPAYLDILDTAGQAEFTAMREQYMRGGEGFIICYSVTDRQSFQEAAKFKELIFQVRHTYEIPLVLVGNKIDLEQFRQVSTEEGMTLARDYNCAFFETSAALRFGIDDAFQGLVREIRRKESMLSLVERKLKRKDSLWKKIKASLKKKRENMI
For the molecule B1, the “basal interaction with Rin, % of wild type DAT” value was 300 % of wild type DAT/Rin interactions.
